# Test results as given in publication PMC9640623, “SAMHD1 deacetylation by SIRT1 promotes DNA end resection by facilitating DNA binding at double-strand breaks” (Nature Communications, 2021).
# Biological target: T1, 6xHis-SAMHD1 wild-type (full-length, recombinant) (human, UniProt Q9Y3Z3 1-626)
# T1 construct: SAMHD1, full-length, from pET14b-6xHis-SAMHD1 (gift from Dr. Baek Kim); with N-terminal His tag and linker region, calculated molecular weight 74 kDa; Tetramer only stated after preincubation with dGTP; also called recombinant SAMHD1; SAMHD1 WT protein; source: E. coli BL21 Rosetta, purified (His-Trap, Superdex 200 SEC); not shown: His6, N-terminal, kept
# Assay: pull-down; GST-SIRT1 (193-741) pre-incubated with glutathione-agarose beads in 50 mM Tris-Cl pH 8, 150 mM NaCl, protease inhibitors, 1 h at 4 °C; recombinant SAMHD1 added for 2 h at 4 °C; blots with anti-SAMHD1 or anti-GST
# Settings: both partners purified
# T1 sequence (Q9Y3Z3 whole entry): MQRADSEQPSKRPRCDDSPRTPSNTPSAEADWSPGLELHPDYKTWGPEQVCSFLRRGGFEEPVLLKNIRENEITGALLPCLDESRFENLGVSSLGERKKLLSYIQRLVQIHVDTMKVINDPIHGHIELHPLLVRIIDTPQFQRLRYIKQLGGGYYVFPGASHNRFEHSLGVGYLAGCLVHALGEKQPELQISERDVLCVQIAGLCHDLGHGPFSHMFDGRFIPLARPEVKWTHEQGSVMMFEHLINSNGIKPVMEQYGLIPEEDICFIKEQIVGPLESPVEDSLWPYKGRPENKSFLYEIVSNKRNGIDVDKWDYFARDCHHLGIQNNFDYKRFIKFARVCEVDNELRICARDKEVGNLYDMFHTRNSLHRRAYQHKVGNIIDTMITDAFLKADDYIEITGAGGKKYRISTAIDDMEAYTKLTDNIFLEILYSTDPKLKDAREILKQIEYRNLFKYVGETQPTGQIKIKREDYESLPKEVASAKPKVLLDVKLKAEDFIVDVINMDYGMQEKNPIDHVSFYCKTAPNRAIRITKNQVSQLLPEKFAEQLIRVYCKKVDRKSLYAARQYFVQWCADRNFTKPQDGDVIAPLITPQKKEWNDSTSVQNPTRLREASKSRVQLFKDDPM
binder,measurement,value
"GST-SIRT1 (containing amino acids 193-741 of SIRT1) (domain or fragment, UniProt Q96EB6 193-741, looked up, SIRT1 amino acids 193-741, recombinant, lacking N-terminal amino acids 1-192; The results call it bacterially-purified; also called GST-SIRT1 (lacking N-terminal amino acids 1–192); source: bought: Active Motif # 31533) MIGTDPRTILKDLLPETIPPPELDDMTLWQIVINILSEPPKRKKRKDINTIEDAVKLLQECKKIIVLTGAGVSVSCGIPDFRSRDGIYARLAVDFPDLPDPQAMFDIEYFRKDPRPFFKFAKEIYPGQFQPSLCHKFIALSDKEGKLLRNYTQNIDTLEQVAGIQRIIQCHGSFATASCLICKYKVDCEAVRGDIFNQVVPRCPRCPADEPLAIMKPEIVFFGENLPEQFHRAMKYDKDEVDLLIVIGSSLKVRPVALIPSSIPHEVPQILINREPLPHLHFDVELLGDCDVIINELCHRLGGEYAKLCCNPVKLSEITEKPPRTQKELAYLSELPPTPLHVSEDSSSPERTSPPDSSVIVTLLDQAAKSNDDLDVSESKGCMEEKPQEVQTSRNVESIAEQMENPDLKNVGSSTGEKNERTSVAGTVRKCWPNRVAKEQISRRLDGNQYLFLPPNRYIFHGAEVYSDSEDDVLSSSSCGSNSDSGTCQSPSLEEPMEDESEIEEFYNGLEDEPDVPERAGGAGFGTDGDDQEAINEAISVKQEVTDMN",binding result,binds
